In the supplement of paper PMC11780869:

System: Bacillus subtilis
Test: cleaved RNA product abundance (RNA/gDNA barcode ratio) relative to median wild-type variant (ratio to wild type); higher = more accumulation of the downstream cleavage product
Method in brief: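 Reporter mRNAs (truncated aprE or tetM) carrying barcoded, mutagenized RNase Y cleavage-site windows were made from oligos with a 9% error rate and integrated into the B. subtilis chromosome. Cultures grew in LB at 37°C from OD600 0.0003 to 0.3. Cleaved RNA was gel-selected, reverse transcribed and barcode-sequenced alongside genomic DNA barcodes, with UMI collapsing. Cleaved product abundance is the RNA:gDNA barcode ratio per variant, scaled to the median wild-type variant.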

[1] = experiment (reporter, strain, medium): exp 4a: truncated aprE reporter, strain BJT201 with 2% xylose (RNase J1 expressed), cleavage site: cggR-gapA (positions -7 to +36 mutated)
[2] = experiment (reporter, strain, medium): exp 8a: truncated aprE reporter, strain BJT201 with 2% xylose (RNase J1 expressed), cleavage site: glnRA (positions -5 to +31 mutated)
[3] = experiment (reporter, strain, medium): exp 2b: truncated aprE reporter, strain BJT200, cleavage site: cggR-gapA (positions -7 to +36 mutated)

Sequence	cleaved RNA product abundance [1]	cleaved RNA product abundance [2]	further results
ACAGACGAAGGAGCCGCGAAGAAGTTTTTAAGGGATGAATAATCCCTCAATATAAATATCTCTCACTTATTTAAA	0.418		
ACAGACGAAGGAGCCGCAAAGAAGTTATTAAGGGACGAATAATCCATCAATATAAATATCTCTCACTTATTTAAA	0.0728		
CGACATGTCCCGCTTCTTTCATTAATCCGTTAGCAACTGTTTAGCTATATACATTAACCTTTTAAGAGGAGGAAT		0.618	
ACAGACGAAGGAGCCGCAAAGAAGTTATTAAGGCATGAATAATCCCTCAATATACATATCTCTCACTTATTTAAA	0.129		cleaved RNA product abundance [3]: 0.112
ACAGACGAAGGAGCCGCAAAGAAGTTATTAAGAGATGAATTATCCCTCAATATAAATATCTCTCACTTATTTAAA	0.183		cleaved RNA product abundance [3]: 0.102
ACAGACGAAGGAGCCGCAAAGAAGTTATTAAGAGATGAATAATCCCTCAATATAATTATCTCTCACTTATTTAAA	0.118		
CGACATGTCCCGCTTCTTTCATTAATCCGTAAGCAACTGTTTTGCTATATACATTTCCCTTTTAAGAGGAGGAAT		0.212	
ACAGACGAAGGAGCCGCAAAGAAGTTATTAAGGGATGAAAAATCCCTCAAAATAAATATCTCTCACTTATTTAAA	0.333		
ACAGACGAAGGAGCCGCAAAGAAGATATTAAGTGATGAATAATCCCTCAATATAAATATCTCTCACTTATTTAAA	0.137		cleaved RNA product abundance [3]: 0.103
ACAGACGAAGGAGCCGCAAATAAGTTATTAAGGGATGAATAATTCCTCAATATAAATATCTCTCACTTATTTAAA	0.547		
ACAGACGAAGGAGCCGCAAAGAAATTATTAAGGGATGAATACTCCCTCAATATAAATATCTCTCACTTATTTAAA			cleaved RNA product abundance [3]: 0.416
CGACATGTCCCGCTTCTTTCATTAATCCGTTAGCAACTTTTTTGCTATATACATTTACATTTTAAGAGGAGGAAT		1.72	
ACAGACGAAGGAGCCGCAAAGAAGTTATTAAGGGATGAATCATCCCTCAATATAAATAACTCTCACTTATTTAAA	0.573		
CGACATGTCCCGCTTCTTTCATTAATCCGTTAGCAATTGTTTTGCTATATACAATTACCTTTTAAGAGGAGGAAT		1.24	
CGACATGTCCCGCTTCTTTCATTAATCCGTTAGCACCTGTTTTGCAATATACATTTACCTTTTAAGAGGAGGAAT		0.351	
ACAGACGAAGGAGCCGCAAAGAAATTTTTAAGGGATGAATAATCCCTCAATATAAATATCTCTCACTTATTTAAA	0.264		cleaved RNA product abundance [3]: 0.206
CGACATGTCCCGCTTCTTTCATTAATCCGTTAGCAACTGTTTTGCTATATACATATACCTTTTAAGAGGAGGAAT		1.04	
CGACATGTCCCGCTTCTTTCATTAATCTGTTAGCAACTATTTTGCTATATACATTTACCTTTTAAGAGGAGGAAT		1.77	
ACAGACGAAGGAGCCGCAAAGAAGTTATTAAGGGATGAAAAATCCCTCAATATAAATATCTCTCACTTATTTAAA	0.781		cleaved RNA product abundance [3]: 0.78; cleaved RNA product abundance (experiment (reporter, strain, medium): exp 6: tetM reporter, strain 168, cleavage site: cggR-gapA (positions -7 to +36 mutated)): 0.985
ACAGACGAAGGAGCCGCAAAGAAGTTAATAAGGGATGAATATTCCCTCAATATAAATATCTCTCACTTATTTAAA	0.279		cleaved RNA product abundance [3]: 0.246
ACAGACGAAGGAGCCGCAAAGAAGTTAATAAGGGATGAATAATCCCTCAACATAAATATCTCTCACTTATTTAAA	0.342		
CGACATGTCCCGCTTCTTTCATTAATCCGTTAGCAAATGATTTGCTATATACATTTACCTTTTAAGAGGAGGAAT		1.28	
ACAGACGAAGGAGCCGCAAAGATGTTATTAAGGGATGAATACTCCCTCAATATAAATATCTCTCACTTATTTAAA			cleaved RNA product abundance [3]: 0.648
CGACATGTCCCGCTTCTTTCATTAATCCGTTAGCCACTGTTTTGTTATATACATTTACCTTTTAAGAGGAGGAAT		0.247	
ACAGACGAAGGAGCCGCTAAGAAGTTATTAAGGGATGAATAATCCCTCAATGTAAATATCTCTCACTTATTTAAA	0.0932		
CGACATGTCCCGCTTCTTTCATTAATCCGTTAGCAACTGATTTGATATATACATTTACCTTTTAAGAGGAGGAAT		0.463	
CGACATGTCCCGCTTCTTTCATTAATACGTTAGTAACTGTTTTGCTAAATACATTTACCTTTTAAGAGGAGGAAT		0.285	

Sequence	cleaved RNA product abundance [1]	cleaved RNA product abundance [2]	further results
ACAGACGAAGGAGCCGCAATGAAGTTATCAAGGGATGAATAATCCCTCAATATAAATATCTCTCACTTATTTAAA	0.487		
ACAGACGAAGGAGCCGCAAAGAAGTTATTAAGGTATGAATAATCCCTCAATATAAAAATCTCTCACTTATTTAAA	0.153		cleaved RNA product abundance [3]: 0.107
ACAGACGAAGGAGCCGCAAAGAAGTTATTAAGGGAAGAATGATCCCTCAATATAAATATCTCTCACTTATTTAAA	0.925		
ACAGACGAAGGAGCCGCAAAGAAGTTATTAAGTGATGAATATTCCCTCAATATAAATATCTCTCACTTATTTAAA	0.102		
ACAGACGAAGGAGCCGCAAAGAAGTTATTAAGGGATGAATAACACCACAATATAAATATCTCTCACTTATTTAAA	0.0909		
CGACATGTCCCGCTTCTTTCATTAATCCGTTATCAACTGTTTTTCTATATACATTTACCTTTTAAGAGGAGGAAT		0.393	
ACAGACGAAGGAGCCGCAAAGAAGATATTAAGGGATTAATAATCCCTCAATATAAATATCTCTCACTTATTTAAA	0.608		
ACAGACGAAGGAGCCGCAAAGAAATTATTAAGGGACGAATAATCCCTCAATATAAATATCTCTCACTTATTTAAA	0.596		cleaved RNA product abundance [3]: 0.392
CGACATGTCCCGCTTCTTTCATTAATCCGTTAGCAACTTTTTTGCAATATACATTTACCTTTTAAGAGGAGGAAT		0.494	
CGACATGTCCCGCTTCTTTCATTAATCCGTTAACAACTGTTTTGCGATATACATTTACCTTTTAAGAGGAGGAAT		0.215	
ACAGACGAAGGAGCCGCAAAGAATTTATTAAGGGATGAATAATCCCTTAATATAAATATCTCTCACTTATTTAAA	0.448		
ACAGACGAAGGAGCCGCAAAGAAGTTATTAAGGGATGAATAATCCCTTTATATAAATATCTCTCACTTATTTAAA	0.977		cleaved RNA product abundance [3]: 1.14
CGACATGTCCCGCTTCTTTCATTAATTCGTTAGCAACTGTCTTGCTATATACATTTACCTTTTAAGAGGAGGAAT		0.981	
ACAGACGAAGGAGCCGCAAAGAAGTAATTATGGGATGAATAATCCCTCAATATAAATATCTCTCACTTATTTAAA	0.169		
ACAGACGAAGGAGCCGCAGACAAGTTATTAAGGGATGAATAATCCCTCAATATAAATATCTCTCACTTATTTAAA	0.844		
ACAGACGAAGGAGCCGCAAAGAAGTTATAAAGGGATGAATAAGCCCTCAATATAAATATCTCTCACTTATTTAAA	0.172		
ACAGACGAAGGAGCCGCAAAGAAGTTATTAAGGGATGAATACTGCCTCAATATAAATATCTCTCACTTATTTAAA			cleaved RNA product abundance [3]: 0.112
ACAGACGAAGGAGCCGCAAAGAAGTTATTAAGGGTTGAATAATCCCTCAATTTAAATATCTCTCACTTATTTAAA	0.132		
ACAGACGAAGGAGCCGCAAAGAAGATATTAATGGATGAATAATCCCTCAATATAAATATCTCTCACTTATTTAAA	0.173		cleaved RNA product abundance [3]: 0.132
ACAGACGAAGGAGCCGCAAAGAAGTTAATAACGGATGAATAATCCCTCAATATAAATATCTCTCACTTATTTAAA	0.177		
ACAGACGAAGGAGCCGCAAATAAGTTATTAAGCGATGAATAATCCCTCAATATAAATATCTCTCACTTATTTAAA	0.134		
ACAGACGAAGGAGCCGCATAGAAGTTATTAAGGGATGAATAATCCTTCAATATAAATATCTCTCACTTATTTAAA	0.54		cleaved RNA product abundance [3]: 0.516
CGACATGTCCCGCTTCTTTCATTAATCCGTTAGCAATTGTTTTGCTATATACATTTAACTTTTAAGAGGAGGAAT		1.06	
ACAGACGAAGGAGCCGCAAAGAAGTTATTAAGGGATGAATAATCACTGAATATAAATATCTCTCACTTATTTAAA	0.0697		cleaved RNA product abundance [3]: 0.0838
ACAGACGAAGGAGCCGCAAAGATGTTATTAAGTGATGAATAATCCCTCAATATAAATATCTCTCACTTATTTAAA	0.11		cleaved RNA product abundance [3]: 0.1
CGACATGTCCCGCTTCTTTCATTACTCCGTTAGCAACTGTCTTGCTATATACATTTACCTTTTAAGAGGAGGAAT		0.946	
ACAGACGAAGGAGCCGCAAAGAAGTTCTTCAGGGATGAATAATCCCTCAATATAAATATCTCTCACTTATTTAAA	0.262		
